Reference: the Immune Epitope Database (IEDB)

Assays:
HLA-A*69:01 [1] = assay: IEDB peptide-MHC binding, purified MHC/competitive/fluorescence; filed as Kd, often an IC50 or EC50 that approximates it; ≥ and ≤ were set here for values at or beyond the usual limits of such assays
HLA-A*26:01 [2] = assay: as above
HLA-A*02:01 [3] = assay: as above
HLA-B*46:01 [4] = assay: as above
HLA-B*51:01 = assay: as above
HLA-B*57:01 [5] = assay: as above
HLA-B*18:01 [6] = assay: as above
HLA-B*39:01 = assay: as above
HLA-B*15:17 = assay: as above
HLA-A*02:19 = assay: IEDB peptide-MHC binding, purified MHC/direct/fluorescence; filed as Kd, often an IC50 or EC50 that approximates it; ≥ and ≤ were set here for values at or beyond the usual limits of such assays
HLA-A*02:11 = assay: as above
HLA-A*02:16 = assay: as above
HLA-A*11:01 = assay: as above
HLA-A*02:12 = assay: as above
HLA-A*23:01 = assay: as above
HLA-A*02:03 = assay: as above
HLA-A*29:02 = assay: as above
HLA-A*24:03 = assay: as above
HLA-A*68:02 = assay: as above
HLA-B*27:05 = assay: as above
HLA-B*40:01 = assay: as above
HLA-B*15:01 [7] = assay: as above
HLA-A*02:01 [8] = assay: as above
HLA-A*01:01 [9] = assay: as above
HLA-B*58:01 [10] = assay: as above
HLA-B*46:01 [11] = assay: as above
HLA-B*18:01 [12] = assay: as above
HLA-B*07:02 = assay: as above
HLA-B*44:02 = assay: as above
HLA-A*03:01 [13] = assay: as above
HLA-A*24:02 = assay: as above
HLA-A*69:01 [14] = assay: as above
HLA-A*26:01 [15] = assay: as above; conditions: source organism: Rickettsia felis URRWXCal2
HLA-A*31:01 = assay: as above
HLA-B*08:01 = assay: as above; conditions: source organism: Rickettsia felis URRWXCal2
HLA-B*48:01 = assay: as above; conditions: source organism: West Nile virus
HLA-B*57:01 [16] = assay: as above; conditions: source organism: West Nile virus
HLA-A*80:01 = assay: as above; conditions: source organism: West Nile virus
HLA-B*15:01 [17] = assay: IEDB peptide-MHC binding, purified MHC/competitive/fluorescence; filed as Kd, often an IC50 or EC50 that approximates it; ≥ and ≤ were set here for values at or beyond the usual limits of such assays
HLA-A*01:01 [18] = assay: as above
HLA-B*58:01 [19] = assay: as above
HLA-A*03:01 [20] = assay: as above; conditions: source organism: Salmonella enterica subsp. enterica serovar Typhi
HLA-B*27:03 = assay: as above; conditions: source organism: Bacillus anthracis str. A0488
[21] = source organism: Bacillus anthracis str. A2012
[22] = source organism: Bacillus anthracis str. Sterne
[23] = source organism: Giardia lamblia ATCC 50803
[24] = source organism: Rickettsia australis
[25] = source organism: West Nile virus
[26] = source organism: Salmonella enterica subsp. enterica serovar Typhi
[27] = source organism: Salmonella enterica subsp. enterica serovar Paratyphi B str. SPB7
[28] = source organism: Bacillus anthracis str. A0488
[29] = source organism: Bacillus cereus 03BB108
[30] = source organism: Burkholderia mallei ATCC 23344

KKNHWFILK showed a Kd (HLA-A*69:01 [1]; [21]) of at least 20 µM, a Kd (HLA-A*26:01 [2]; [21]) of at least 20 µM and a Kd (HLA-A*02:01 [3]; [21]) of at least 20 µM. The Kd (HLA-B*46:01 [4]; [21]) was at least 20 µM, the Kd (HLA-B*51:01; [21]) was at least 20 µM and the Kd (HLA-B*57:01 [5]; [21]) was at least 20 µM. It also gave a Kd (HLA-B*18:01 [6]; [21]) of at least 20 µM, a Kd (HLA-B*39:01; [21]) of at least 20 µM and a Kd (HLA-B*15:17; [21]) of at least 20 µM. It also gave a Kd (HLA-A*02:19; [22]) of at least 20 µM, a Kd (HLA-A*02:11; [22]) of at least 20 µM and a Kd (HLA-A*02:16; [22]) of at least 20 µM. For the same sequence, the Kd (HLA-A*11:01; [22]) was 0.254 µM, the Kd (HLA-A*02:12; [22]) was at least 20 µM and the Kd (HLA-A*23:01; [22]) was at least 20 µM. It also gave a Kd (HLA-A*02:03; [22]) of at least 20 µM, a Kd (HLA-A*29:02; [22]) of at least 20 µM and a Kd (HLA-A*24:03; [22]) of at least 20 µM. For the same sequence, the Kd (HLA-A*68:02; [22]) was at least 20 µM.

WLKEKHEEL gave a Kd (HLA-B*27:05; [23]) of at least 20 µM, a Kd (HLA-B*40:01; [23]) of at least 20 µM and a Kd (HLA-A*11:01; [23]) of at least 20 µM. It also gave a Kd (HLA-B*15:01 [7]; [23]) of 0.498 µM, a Kd (HLA-A*02:01 [8]; [23]) of 0.304 µM and a Kd (HLA-A*01:01 [9]; [23]) of at least 20 µM. For the same sequence, the Kd (HLA-B*58:01 [10]; [23]) was at least 20 µM, the Kd (HLA-B*46:01 [11]; [23]) was at least 20 µM and the Kd (HLA-B*18:01 [12]; [23]) was at least 20 µM. For the same sequence, the Kd (HLA-B*07:02; [23]) was at least 20 µM, the Kd (HLA-B*44:02; [23]) was at least 20 µM and the Kd (HLA-A*03:01 [13]; [23]) was at least 20 µM. It also gave a Kd (HLA-A*24:02; [23]) of at least 20 µM.

With IFQKISFFW the Kd (HLA-A*24:02; source organism: Cryptosporidium parvum Iowa II) was 0.017 µM.

For ATYGTAVNK, the Kd (HLA-B*27:05; [24]) was at least 20 µM, the Kd (HLA-A*69:01 [14]; [24]) was at least 20 µM and the Kd (HLA-B*40:01; [24]) was at least 20 µM. The Kd (HLA-A*26:01 [15]) was at least 20 µM, the Kd (HLA-A*11:01; [24]) was 0.0296 µM and the Kd (HLA-B*15:01 [7]; [24]) was at least 20 µM. For the same sequence, the Kd (HLA-A*02:01 [8]; [24]) was at least 20 µM, the Kd (HLA-A*01:01 [9]; [24]) was at least 20 µM and the Kd (HLA-B*58:01 [10]; [24]) was at least 20 µM. For the same sequence, the Kd (HLA-B*46:01 [11]; [24]) was at least 20 µM, the Kd (HLA-B*18:01 [12]; [24]) was at least 20 µM and the Kd (HLA-B*07:02; [24]) was at least 20 µM. The Kd (HLA-B*44:02; [24]) was at least 20 µM, the Kd (HLA-A*31:01; [24]) was 0.0371 µM and the Kd (HLA-B*08:01) was at least 20 µM. For the same sequence, the Kd (HLA-A*03:01 [13]; [24]) was 0.0833 µM and the Kd (HLA-A*24:02; [24]) was at least 20 µM.

With MLRKKQITV the Kd (HLA-B*27:05; [25]) was at least 20 µM, the Kd (HLA-A*69:01 [14]; [25]) was at least 20 µM and the Kd (HLA-B*48:01) was at least 20 µM. It also gave a Kd (HLA-B*40:01; [25]) of at least 20 µM, a Kd (HLA-A*01:01 [9]; [25]) of at least 20 µM and a Kd (HLA-B*58:01 [10]; [25]) of at least 20 µM. It also gave a Kd (HLA-B*46:01 [11]; [25]) of at least 20 µM, a Kd (HLA-B*57:01 [16]) of at least 20 µM and a Kd (HLA-B*18:01 [12]; [25]) of at least 20 µM. It also gave a Kd (HLA-B*44:02; [25]) of at least 20 µM, a Kd (HLA-A*31:01; [25]) of at least 20 µM and a Kd (HLA-A*80:01) of at least 20 µM. The Kd (HLA-A*29:02; [25]) was at least 20 µM.

ASIADILTY was tested, and the Kd (HLA-B*15:01 [17]; [26]) was 0.425 µM, the Kd (HLA-A*01:01 [18]; [26]) was 0.764 µM and the Kd (HLA-B*58:01 [19]; [26]) was 0.0207 µM. It also gave a Kd (HLA-A*03:01 [20]) of at least 20 µM.

FSDLLSMAW showed a Kd (HLA-B*15:01 [17]; [27]) of at least 20 µM, a Kd (HLA-A*01:01 [18]; [27]) of 0.0014 µM and a Kd (HLA-B*58:01 [19]; [27]) of 0.0024 µM.

In the case of SYMLQGLRK, the Kd (HLA-A*69:01 [1]; [28]) is reported as at least 20 µM, the Kd (HLA-A*26:01 [2]; [28]) is reported as at least 20 µM and the Kd (HLA-A*02:01 [3]; [28]) is reported as at least 20 µM. The Kd (HLA-B*46:01 [4]; [28]) was at least 20 µM, the Kd (HLA-B*51:01; [28]) was at least 20 µM and the Kd (HLA-B*57:01 [5]; [28]) was at least 20 µM. It also gave a Kd (HLA-B*18:01 [6]; [28]) of at least 20 µM, a Kd (HLA-B*39:01; [28]) of at least 20 µM and a Kd (HLA-B*27:03) of at least 20 µM. For the same sequence, the Kd (HLA-B*15:17; [28]) was at least 20 µM, the Kd (HLA-A*02:19; [29]) was at least 20 µM and the Kd (HLA-A*02:11; [29]) was at least 20 µM. For the same sequence, the Kd (HLA-A*02:16; [29]) was at least 20 µM, the Kd (HLA-A*11:01; [29]) was 0.228 µM and the Kd (HLA-A*02:12; [29]) was at least 20 µM. The Kd (HLA-A*23:01; [29]) was at least 20 µM, the Kd (HLA-A*02:03; [29]) was at least 20 µM and the Kd (HLA-A*03:01 [13]; [29]) was at least 20 µM. The Kd (HLA-A*24:03; [29]) was at least 20 µM and the Kd (HLA-A*68:02; [29]) was at least 20 µM.

With CYRGVRHRK the Kd (HLA-A*23:01; [30]) was 0.41 µM and the Kd (HLA-A*24:03; [30]) was 1.39 µM.
